The values below come from patent US20150174076A1, “MUCOADHESIVE DEVICES FOR DELIVERY OF ACTIVE AGENTS” (Entrega, Inc., priority 2012, published 2015).

The data set deals with Caco-2 monolayers. Briefly: Transport of FITC-insulin across Caco-2 monolayer. The class given is in vitro ADME, human. How it is done: Caco-2 cell line HTB-37 (American Type Culture Collection, Rockville, Md.), derived from human colon cells, was used for all experiments. Cells were maintained at 37° C. in DMEM supplemented with 25 IU/ml of penicillin, 25 mg/L of streptomycin, 250 μg/L of amphotericin B and 100 ml/L of fetal bovine serum. Monolayers were grown on BD Biocoat™ collagen filter supports (Discovery Labware, Bedford. Mass.). […] At the end of the growth period, the integrity of the cell monolayer was confirmed by transepithelial electrical resistance (TEER) measurements (Millicell-ERS voltohmmeter, Millipore. Billerica, Mass.). Only monolayers with TEER values over 300 Ω cm^2 were used for further experimentation. A solution of FITC-insulin in DMEM was placed on Caco-2 monolayers at various concentrations and samples were collected from the basolateral side and analyzed for fluorescence. To determine insulin transport from wafers, FITC-insulin-containing wafers were placed on Caco-2 monolayers. Samples were taken from the basolateral side and analyzed for insulin concentration.
A general note: Caco-2 monolayers are a common model of the intestinal barrier.

As to “insulin free in solution: solution of FITC-insulin in DMEM placed on Caco-2 monolayers”, the “transport of insulin across Caco-2 monolayers” value is recorded as “dose-dependent”.
